Measurements as given in patent US20140343258A1 (Astellas, published 2014).

T1: human CTGF (human, UniProt P29279 27-349)
T1 construct: also called human CTGF protein; connective tissue growth factor
T1 sequence: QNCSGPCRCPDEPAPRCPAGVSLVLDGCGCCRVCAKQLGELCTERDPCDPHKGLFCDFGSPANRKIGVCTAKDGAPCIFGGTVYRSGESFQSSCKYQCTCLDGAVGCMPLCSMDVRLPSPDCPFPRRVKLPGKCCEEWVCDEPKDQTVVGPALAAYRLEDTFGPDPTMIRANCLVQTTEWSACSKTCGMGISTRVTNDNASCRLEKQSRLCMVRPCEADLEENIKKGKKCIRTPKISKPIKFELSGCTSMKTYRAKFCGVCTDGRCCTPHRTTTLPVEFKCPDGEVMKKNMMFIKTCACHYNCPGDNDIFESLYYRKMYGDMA

T2: mouse CTGF (mouse, UniProt P29268 26-348)
T2 construct: mature
T2 sequence (looked up): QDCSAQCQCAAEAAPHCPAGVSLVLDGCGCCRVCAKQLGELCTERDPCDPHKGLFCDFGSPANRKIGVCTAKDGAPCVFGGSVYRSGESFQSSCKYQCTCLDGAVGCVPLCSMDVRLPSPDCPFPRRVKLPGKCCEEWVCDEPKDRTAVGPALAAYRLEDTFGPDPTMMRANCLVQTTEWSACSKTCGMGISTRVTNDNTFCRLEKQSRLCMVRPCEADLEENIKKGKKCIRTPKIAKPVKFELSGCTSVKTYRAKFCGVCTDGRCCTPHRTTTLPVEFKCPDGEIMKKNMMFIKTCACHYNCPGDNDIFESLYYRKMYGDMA

T3: rat CTGF (rat, UniProt Q9R1E9 25-347)
T3 construct: mature
T3 sequence (looked up): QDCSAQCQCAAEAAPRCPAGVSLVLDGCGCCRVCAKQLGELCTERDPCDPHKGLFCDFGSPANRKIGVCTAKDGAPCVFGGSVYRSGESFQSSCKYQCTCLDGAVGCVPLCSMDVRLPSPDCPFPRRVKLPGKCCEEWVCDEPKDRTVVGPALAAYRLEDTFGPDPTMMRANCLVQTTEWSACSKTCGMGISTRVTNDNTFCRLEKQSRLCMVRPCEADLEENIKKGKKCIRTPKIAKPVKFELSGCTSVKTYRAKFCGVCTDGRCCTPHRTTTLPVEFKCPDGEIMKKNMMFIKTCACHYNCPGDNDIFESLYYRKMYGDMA


Columns and labels:
human CTGF [1] = target: T1, human CTGF; experiment: ELISA, human CTGF immobilized on the plate, HRP anti-mouse IgG detection
Procedure: The present inventors evaluated the binding specificity of the antibody for CTGF using an ELISA method. 20 μL of PBS solution of human CTGF (1 μg/mL) was added to a Maxisorp 384 plate (Nunc, Inc.), and immobilized by being incubated overnight at 4° C. The next day, the plate was washed once with 100 μL of washing solution (TPBS: 0.05% Tween-20-containing PBS), and then 100 μL of blocking agent (1% BSA-containing PBS) was added thereto and allowed to stand at room temperature for 1 hour. After washing once with 100 μL of TBST washing solution, a series of appropriate dilutions of the purified antibody sample were prepared and added to the plate. After incubation at room temperature for 1 hour, the plate was washed three times with 100 μL of TBST washing solution, and a goat anti-mouse IgG antibody labeled with a horseradish peroxidase (HRP-goat anti-mouse IgG antibody; Zymed Laboratories, Inc.) which was diluted 5000-fold with a 0.1% BSA-containing TBST washing solution (20 μL) was added thereto. […] After adding 40 μL of TMB chromogenic reagent (Sumitomo Bakelite Co., Ltd.) thereto and allowing it to stand at room temperature for 10 minutes, 40 μL of stopping solution (2 mol/L sulfuric acid) was added thereto to stop the reaction, and the absorbance at 450 nm was measured. Each of the antibodies was tested in duplicate, and the EC50 was analyzed by curve fitting.

mouse CTGF = target: T2, mouse CTGF; experiment: ELISA, CTGF immobilized on the plate, HRP anti-human IgG detection
Procedure: (§1) The present inventors evaluated the binding specificity of the antibody for CTGF using an ELISA method. 20 μL of PBS solution of human CTGF (1 μg/mL) was added to a Maxisorp 384 plate (Nunc, Inc.), and immobilized by being incubated overnight at 4° C. The next day, the plate was washed once with 100 μL of washing solution (TPBS: 0.05% Tween-20-containing PBS), and then 100 μL of blocking agent (1% BSA-containing PBS) was added thereto and allowed to stand at room temperature for 1 hour. After washing once with 100 μL of TBST washing solution, a series of appropriate dilutions of the purified antibody sample were prepared and added to the plate. After incubation at room temperature for 1 hour, the plate was washed three times with 100 μL of TBST washing solution, and a goat anti-mouse IgG antibody labeled with a horseradish peroxidase (HRP-goat anti-mouse IgG antibody; Zymed Laboratories, Inc.) which was diluted 5000-fold with a 0.1% BSA-containing TBST washing solution (20 μL) was added thereto. After incubation at room temperature for 1 hour, the plate was washed three times with 100 μL of TBST washing solution. After adding 40 μL of TMB chromogenic reagent (Sumitomo Bakelite Co., Ltd.) thereto and allowing it to stand at room temperature for 10 minutes, 40 μL of stopping solution (2 mol/L sulfuric acid) was added thereto to stop the reaction, and the absorbance at 450 nm was measured. Each of the antibodies was tested in duplicate, and the EC50 was analyzed by curve fitting.
(§2) The present inventors evaluated the binding specificity of fully human 37-45 and fully human 37-45-MH1 prepared in the above Examples to human, mouse, rat and monkey CTGF using an ELISA method. Here, the same method as described in Example 4 was used, but a rabbit anti-human IgG antibody labeled with horseradish peroxidase (HRP-rabbit anti-human IgG antibody; DAKO) which was 5000-fold diluted with a 0.1% BSA-containing TBST washing solution as a secondary antibody. The test on each antibody was carried out in duplicate and EC50 was analyzed by curve fitting.

monkey CTGF = target: T4, monkey CTGF (monkey); experiment: as above
T4 construct: mature
Procedure: as §1, §2

rat CTGF = target: T3, rat CTGF; experiment: as above
Procedure: as §1, §2

human CTGF [2] = target: T1, human CTGF; experiment: as above
Procedure: as §1, §2

human CTGF [3] = target: T1, human CTGF; experiment: SPR, Biacore 2000, antibody captured on CM5 chip (Human Antibody Capture Kit), human CTGF as analyte
Text: (§3) In order to measure the antigen-specific binding activity of fully human 37-45-MH1 in more detail, the present inventors carried out surface plasmon resonance (SPR) analysis. In the present Example, an anti-human CTGF antibody CLN1 (Patent Document 2) was used as a comparative antibody.
(§4) In the SPR analysis, Biacore 2000 (GE Healthcare Japan) was used to carry out analysis. An anti-CTGF antibody was immobilized on the surface of a Sensor Chip CM5 using a Human Antibody Capture Kit and an Amine Coupling Kit (GE Healthcare Japan). Serial dilution of the human CTGF acquired in Example 1 was made by HBS-EP solution (GE Healthcare Japan). 100 μL of the dilution was added to flow path at flow rate 50 μl/min. By this measurement system, the association rate constant (ka), the dissociation rate constant (kd), and the dissociation constant (KD) between the human CTGF protein and the anti-CTGF antibody were calculated using a data analysis software (BIA Evaluation).

human CTGF [4] = target: T1, human CTGF; experiment: SPR, Biacore 2000, comparison of KD with the reference antibody CLN1
Text: as §3, §4

Row | EC50 (human CTGF [1]) [ng/mL] | EC50 (mouse CTGF) [µg/mL] | EC50 (monkey CTGF) [µg/mL] | EC50 (rat CTGF) [µg/mL] | EC50 (human CTGF [2]) [µg/mL] | Kd (human CTGF [3]) [nM] | koff (human CTGF [3]) [s⁻¹] | fold binding activity against CLN1 (human CTGF [4]) [times] | Binder
1 | 1.6 | – | – | – | – | – | – | – | 37-45 (antibody, V domains shown, also called 37-45 antibody) VH: QVQLVQSGAEVKKPGASVKVSCKASGYTFTGYYMYWVRQAPGQGLEWMGWINPNSGGTNYSQKFQGRVTMTRDTSISTAYMELSRLRSDDTALYYCARGSKWNYPFDYWGQGTLVTVSS VL: EIVLTQSPGTLSLSPGERATLSCRASQSVSSSYLAWYQQKPGQAPRLLIYGASRRATGIPDRFSGSGSGTDFTLTISRLEPEDFVVYFCQQYVSTPWTFGQGTKVEIKR
2 | – | 0.0124 | 0.0125 | 0.0131 | 0.0132 | – | – | – | fully human 37-45 (antibody, human IgG1, kappa, V domains shown, Human Ig gamma1 and human kappa constant regions, expressed in CHO-K1SV cells; The heavy-chain variable region has an N-glycosylation motif at Asn 58 (Kabat)) VH: QVQLVQSGAEVKKPGASVKVSCKASGYTFTGYYMYWVRQAPGQGLEWMGWINPNSGGTNYSQKFQGRVTMTRDTSISTAYMELSRLRSDDTALYYCARGSKWNYPFDYWGQGTLVTVSS VL: EIVLTQSPGTLSLSPGERATLSCRASQSVSSSYLAWYQQKPGQAPRLLIYGASRRATGIPDRFSGSGSGTDFTLTISRLEPEDFVVYFCQQYVSTPWTFGQGTKVEIKR
3 | – | 0.0092 | 0.0086 | 0.0092 | 0.0104 | 0.037 | 0.00016 | ≥ 12 | fully human 37-45-MH1 (antibody, human IgG1, kappa, V domains shown, It has the same light chain as fully human 37-45; Human IgG1/kappa) VH: not shown VL: EIVLTQSPGTLSLSPGERATLSCRASQSVSSSYLAWYQQKPGQAPRLLIYGASRRATGIPDRFSGSGSGTDFTLTISRLEPEDFVVYFCQQYVSTPWTFGQGTKVEIKR
